Source: patent publication US20160375112A1 (priority 2013, published 2016)

Conditions: human, in vivo

Substance: botulinum toxin
- botulinum toxin-related reactions (hypersensitivity, after injection and before ALDARA): No botulinum toxin-related reactions
